FireProtDB (doi:10.1016/j.bpc.2007.01.002)

Conditions: Equus caballus, Thermal, reversible: Yes
[1] = pH 3.8, DSC, Sodium acetate 50 mM, transition: 3
[2] = pH 4.1, DSC, Sodium acetate 50 mM
[3] = pH 4.1, DSC, Sodium acetate 50 mM, transition: 3
[4] = pH 4.5, DSC, Sodium acetate 50 mM
[5] = pH 5, DSC, Sodium acetate 50 mM
[6] = pH 5, DSC, Sodium acetate 50 mM, transition: 3

Chain of Cytochrome c wild type, P00004 (P00004 whole entry): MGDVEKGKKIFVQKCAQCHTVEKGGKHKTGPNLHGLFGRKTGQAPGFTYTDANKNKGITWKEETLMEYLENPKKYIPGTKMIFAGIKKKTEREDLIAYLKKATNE

With Cytochrome c wild type, P00004 the Tm (pH 2.9, IATC, KCl 20 mM) was 40 °C, the “unfolding enthalpy (calorimetric)” value (pH 2.9, IATC, KCl 20 mM) was 68.8 kcal/mol and the Tm [1] was 68 °C. For the same substance, the “unfolding enthalpy (calorimetric)” value [1] was 33.7 kcal/mol, the Tm [2] was 70 °C and the “heat capacity change of unfolding” value [2] was 1.34 kcal/mol/K. For the same substance, the “unfolding enthalpy (calorimetric)” value [2] was 112 kcal/mol, the Tm [3] was 69 °C and the “unfolding enthalpy (calorimetric)” value [3] was 33.7 kcal/mol. For the same substance, the Tm [4] was 74.1 °C, the “heat capacity change of unfolding” value [4] was 1.51 kcal/mol/K and the “unfolding enthalpy (calorimetric)” value [4] was 119 kcal/mol. For the same substance, the Tm [5] was 76.2 °C, the “heat capacity change of unfolding” value [5] was 1.39 kcal/mol/K and the “unfolding enthalpy (calorimetric)” value [5] was 124 kcal/mol. The Tm [6] was 73 °C and the “unfolding enthalpy (calorimetric)” value [6] was 37.5 kcal/mol.
